We go through five substances from paper PMC10866649.

The target of experiment [1] is Specific ICAM-3–grabbing non-integrin-related-1 (SIGN-R1; CD209b) (UniProt Q8CJ91). Put plainly: flow cytometry on cells (SIGN-R1+/+ murine BMDMs). The following applies: type I FcγRs blocked; PBS control = 1; read off a plot.
Experiment [2] addresses Human IgG1 Fc bearing the Abdeg mutations (efgartigimod) (human). In words: SPR + BLI; Fcs immobilised on chips or captured on biosensors; human or mouse FcRn at 1,600 nM to 50 nM in 2-fold dilutions, pH 6.0; Biacore 3000 and Octet K2 both named. (SPR reads the build-up and loss of mass on a sensor chip optically.)
The target of experiment [3] is Human IgG1 Fc bearing the F241A mutation, produced in CHO-K1 cells coexpressing hST6GAL1 and hB4GALT1 (human). The description is as above.
For experiment [4], the target named is Wild-type human IgG1 Fc (human). The experiment is described as above.
Experiment [5] has as its target Human IgG1 Fc bearing the Abdeg mutations (Fc^Abdeg, efgartigimod) (human). Put plainly: SPR + BLI; Fc immobilised on chips / captured on biosensors; human or mouse FcRn at 1,600 nM to 50 nM in 2-fold dilutions, pH 6.0; Biacore 3000 and Octet K2 are both named.

Values joined by “and” are separate entries in the source; they are usually repeats but may differ in a detail not shown here. Equal values may be shown once.

In general, Kd refers to the equilibrium constant for the complex coming apart.

Chain of Mouse neonatal Fc receptor (FcRn) (Q61559 22-297): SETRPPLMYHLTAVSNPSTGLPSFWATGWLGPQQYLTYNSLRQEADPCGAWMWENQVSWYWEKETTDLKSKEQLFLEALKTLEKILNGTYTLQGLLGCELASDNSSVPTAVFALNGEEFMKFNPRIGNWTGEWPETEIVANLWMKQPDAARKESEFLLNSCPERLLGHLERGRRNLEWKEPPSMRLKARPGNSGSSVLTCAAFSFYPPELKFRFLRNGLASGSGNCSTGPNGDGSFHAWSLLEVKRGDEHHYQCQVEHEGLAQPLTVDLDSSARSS
Chain of Mouse neonatal Fc receptor (FcRn) (P01887 21-119): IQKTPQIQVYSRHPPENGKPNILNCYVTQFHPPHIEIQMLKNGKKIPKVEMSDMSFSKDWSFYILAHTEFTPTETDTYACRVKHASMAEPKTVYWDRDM
Chain of Human neonatal Fc receptor (FcRn) (P55899 24-297): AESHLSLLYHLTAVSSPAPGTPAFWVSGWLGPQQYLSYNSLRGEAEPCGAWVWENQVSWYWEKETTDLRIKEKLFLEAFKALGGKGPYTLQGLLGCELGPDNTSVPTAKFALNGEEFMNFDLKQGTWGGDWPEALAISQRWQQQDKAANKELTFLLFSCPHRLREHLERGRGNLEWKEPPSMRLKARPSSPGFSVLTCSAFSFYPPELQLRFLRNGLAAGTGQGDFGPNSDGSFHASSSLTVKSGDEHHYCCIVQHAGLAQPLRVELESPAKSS
Chain of Human neonatal Fc receptor (FcRn) (P61769 21-119): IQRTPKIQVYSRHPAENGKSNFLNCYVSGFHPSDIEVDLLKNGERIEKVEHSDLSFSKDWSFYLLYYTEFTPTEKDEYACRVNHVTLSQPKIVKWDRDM
Chain of Specific ICAM-3–grabbing non-integrin-related-1 (SIGN-R1; CD209b) (Q8CJ91 whole entry): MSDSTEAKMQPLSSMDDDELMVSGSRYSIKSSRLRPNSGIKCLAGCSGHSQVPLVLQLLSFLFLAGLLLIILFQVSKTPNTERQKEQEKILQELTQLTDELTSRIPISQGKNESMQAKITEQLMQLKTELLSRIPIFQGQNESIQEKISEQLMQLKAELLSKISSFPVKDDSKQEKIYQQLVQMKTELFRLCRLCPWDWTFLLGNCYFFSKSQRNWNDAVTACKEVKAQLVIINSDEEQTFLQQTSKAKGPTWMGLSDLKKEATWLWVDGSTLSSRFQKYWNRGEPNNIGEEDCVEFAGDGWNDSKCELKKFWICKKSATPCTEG

Wild-type human IgG1 Fc (Fc^WT) F241A came in with a response (fold change in MFI (normalized to PBS)) in experiment [1] of 1.6.

“Mouse neonatal Fc receptor (FcRn) (from UniProt Q61559 22-297; P01887 21-119)”: the dissociation constant (Kd) in experiment [2] was 0.00027 µM and 0.00028 µM and 0.00026 µM; in experiment [3] it was 0.0508 µM and 0.0775 µM and 0.0867 µM; in experiment [4], 0.0516 µM and 0.0732 µM and 0.0858 µM.

“Mouse neonatal Fc receptor (mFcRn) (from UniProt Q61559 22-297)”: in experiment [5], the fold enhanced affinity compared with human FcRn was over 10 fold and the fold lower KD than that of Fc^F241A/B4ST6 amounted to 267 fold.

For “Human neonatal Fc receptor (FcRn) (from UniProt P55899 24-297; P61769 21-119)”, the Kd in experiment [2] is 0.006 µM; in experiment [3], 0.131 µM and 0.26 µM and 0.208 µM.

As to “Human neonatal Fc receptor (hFcRn) (from UniProt P55899 24-297)”, in experiment [5], the fold enhanced affinity compared with Fc^F241A and Fc^WT is 96 fold; the fold lower KD than that of Fc^F241A/B4ST6 was 39 fold.
